This note sets out measurements from publication PMC6954417.

Series [1] has as its target RAD52 (human) (UniProt P43351).
In series [2] the target is RAD52 (human) (UniProt P43351). This is another data set of the same source.
The target in series [3] is RAD52 (human) (UniProt P43351). This is another data set of the same source.
In series [4] the target is T1, His6-RAD52 (Homo sapiens) (UniProt P43351).
T1 sequence: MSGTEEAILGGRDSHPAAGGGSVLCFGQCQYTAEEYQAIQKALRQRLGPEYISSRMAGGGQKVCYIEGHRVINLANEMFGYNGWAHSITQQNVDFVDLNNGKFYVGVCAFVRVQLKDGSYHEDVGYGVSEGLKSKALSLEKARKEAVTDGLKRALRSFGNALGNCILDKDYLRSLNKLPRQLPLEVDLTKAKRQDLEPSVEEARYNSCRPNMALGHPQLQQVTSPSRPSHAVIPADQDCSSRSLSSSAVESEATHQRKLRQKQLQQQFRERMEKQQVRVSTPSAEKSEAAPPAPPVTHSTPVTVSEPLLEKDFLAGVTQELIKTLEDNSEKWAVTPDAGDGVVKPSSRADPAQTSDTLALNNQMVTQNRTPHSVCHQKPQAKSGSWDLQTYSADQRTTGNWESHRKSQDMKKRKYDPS
Briefly: competition (FRET). Particulars: 8 nM RAD52 on 1 nM Cy3-dT30-Cy5; ssDNA EMSA: 30 mM Tris-acetate pH 7.5, 1 mM DTT, RT, 0.1% glutaraldehyde; FRET: same buffer + 0.1 mg/ml BSA, 25 C; dsDNA EMSA: 30 mM KPi pH 7.4, 1 mM DTT …; scale: nM base pairs for nearly complete ssDNA release. For orientation: In EMSA bound probe runs differently from free probe, usually more slowly.

Series [5] addresses His6-RAD52;DSS1 (Homo sapiens;Homo sapiens) (UniProt P43351+P60896). Briefly: competition (FRET). Particulars: 8 nM RAD52-DSS1 on 1 nM Cy3-dT30-Cy5; ssDNA EMSA: 30 mM Tris-acetate pH 7.5, 1 mM DTT, RT, 0.1% glutaraldehyde; FRET: same buffer + 0.1 mg/ml BSA, 25 C; dsDNA EMSA: 30 mM KPi pH 7.4, 1 mM DTT …; scale: nM base pairs for almost complete ssDNA release.

Chain of His6-RAD52;DSS1 (Homo sapiens;Homo sapiens) (P60896 whole entry, one chain of several): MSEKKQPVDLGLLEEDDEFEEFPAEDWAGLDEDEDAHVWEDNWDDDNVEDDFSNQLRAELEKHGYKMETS

Substance DSS1 (natural protein) had a gel-based single-strand annealing of 3'-overhang substrates, increasing RAD52 or pre-formed RAD52-DSS1 (1:1): maximum yield (optimum at 120 nM complex against 480 nM RAD52 alone) with RAD52 (human) [1] of 65%. The substance further yielded an FRET-based annealing of complementary 28-mers, 8 nM RAD52 with 40 nM DSS1, no RPA: initial rate (RAD52 alone 5.2 bp/s) in the series with RAD52 (human) [2] of 17.5 bp/s. The substance further came in with a D-loop formation with a 90-mer ssDNA and supercoiled plasmid, RAD52 or RAD52-DSS1 (1:1) at 150-3200 nM: yield (10% for RAD52 alone at 800 nM) with RAD52 (human) [3] of 20%.

Regarding PhiX174 RF I DNA, ApaLI-linearized, the binding signal in series [4] was found to be 200; in series [5] it was 50.
